Data taken from article PMC2573054.

Target: His-Rac2 (hexahistidine-tagged Rac2^G12V, aa 2-177) (human) (UniProt P15153)
Assay: SPR

PLCβ2 (PH-C2) (domain or fragment)
Kd: 6 µM
kon: 385 M⁻¹ s⁻¹
